The values that follow are results of earlier work, collected in publication PMC12703448.

pKd: −log10 of the molar value.

The data set concerns the target PDE6D (Homo sapiens) (UniProt O43924).

Sequence of INPP5E (Q9NRR6 1-641): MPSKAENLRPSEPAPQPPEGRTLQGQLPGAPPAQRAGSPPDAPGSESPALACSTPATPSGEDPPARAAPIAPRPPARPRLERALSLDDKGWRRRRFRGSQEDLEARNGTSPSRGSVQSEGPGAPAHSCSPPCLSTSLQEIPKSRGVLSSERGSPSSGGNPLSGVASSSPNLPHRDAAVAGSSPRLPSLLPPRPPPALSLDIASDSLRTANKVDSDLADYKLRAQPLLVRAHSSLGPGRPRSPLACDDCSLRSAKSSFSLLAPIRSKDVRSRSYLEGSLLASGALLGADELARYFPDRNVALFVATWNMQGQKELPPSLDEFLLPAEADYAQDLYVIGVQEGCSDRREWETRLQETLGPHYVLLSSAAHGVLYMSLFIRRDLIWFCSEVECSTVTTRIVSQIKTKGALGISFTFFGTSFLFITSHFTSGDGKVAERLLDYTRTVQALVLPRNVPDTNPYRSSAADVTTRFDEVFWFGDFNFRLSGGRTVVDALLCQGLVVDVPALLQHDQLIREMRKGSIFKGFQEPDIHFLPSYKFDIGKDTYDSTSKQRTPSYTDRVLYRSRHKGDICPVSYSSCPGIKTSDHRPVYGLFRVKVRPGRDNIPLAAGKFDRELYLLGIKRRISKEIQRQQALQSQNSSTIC
Sequence of PDE6D (Homo sapiens) (O43924 whole entry): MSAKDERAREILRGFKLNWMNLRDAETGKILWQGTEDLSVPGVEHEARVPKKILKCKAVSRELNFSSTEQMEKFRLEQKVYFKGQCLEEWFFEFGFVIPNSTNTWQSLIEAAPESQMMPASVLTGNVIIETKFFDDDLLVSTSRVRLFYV

Regarding INPP5E (from UniProt Q9NRR6), the pKd was 8.40.
